In assay [1] the target is NPP-1 (C. elegans prey, IC format) (C. elegans). Nature of the assay: SIMPL ELISA, C. elegans lysate, IN/IC; ratio of spliced signal to total signal.
For assay [2], the target named is F44B9.8 (C. elegans prey, IC format) (C. elegans) (UniProt P34429). The assay is described as above.
Assay [3] concerns the target HSP90AA1 (prey, CIC format) (human) (UniProt P07900). Kind of assay: SIMPL ELISA, bait-IN/prey-CIC.
In assay [4] the target is RAD23A (prey, CIC format) (human) (UniProt P54725). Nature of the assay: SIMPL ELISA, bait-IN/prey-CIC.
Assay [5] has as its target RELA (prey, CIC format) (human) (UniProt Q04206). Kind of assay: SIMPL ELISA, bait-IN/prey-CIC.
Assay [6] concerns the target RAN (prey, CIC format) (human) (UniProt P62826). Kind of assay: SIMPL ELISA, bait-IN/prey-CIC.
Assay [7] addresses PTPN11 (prey, CIC format) (human) (UniProt Q06124). Nature of the assay: SIMPL ELISA, bait-IN/prey-CIC.
Assay [8] concerns the target T1, SOC-2 (C. elegans prey, CIC format) (C. elegans) (UniProt Q22875).
T1 sequence (looked up): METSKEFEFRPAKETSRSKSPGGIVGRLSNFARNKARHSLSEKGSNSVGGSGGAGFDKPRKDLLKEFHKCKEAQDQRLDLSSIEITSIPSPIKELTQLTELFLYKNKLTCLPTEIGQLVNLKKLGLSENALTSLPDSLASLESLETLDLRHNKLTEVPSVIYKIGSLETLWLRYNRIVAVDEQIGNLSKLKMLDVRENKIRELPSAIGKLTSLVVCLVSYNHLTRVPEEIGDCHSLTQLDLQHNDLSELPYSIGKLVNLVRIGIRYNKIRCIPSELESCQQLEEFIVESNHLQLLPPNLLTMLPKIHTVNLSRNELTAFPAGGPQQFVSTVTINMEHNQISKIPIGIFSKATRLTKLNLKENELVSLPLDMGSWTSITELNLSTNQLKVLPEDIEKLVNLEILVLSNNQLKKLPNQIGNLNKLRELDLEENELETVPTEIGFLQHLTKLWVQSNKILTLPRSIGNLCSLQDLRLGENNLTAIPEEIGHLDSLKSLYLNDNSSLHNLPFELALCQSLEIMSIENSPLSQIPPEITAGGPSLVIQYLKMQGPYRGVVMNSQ
Kind of assay: SIMPL ELISA, C. elegans lysate, IN/CIC; ratio of spliced signal to total signal.

The target of assay [9] is T2, SOC-2 (C. elegans prey, IC format) (C. elegans) (UniProt Q22875).
T2 sequence (looked up): T1 sequence (looked up)
Kind of assay: SIMPL ELISA, C. elegans lysate, IN/IC; ratio of spliced signal to total signal.

Assay [10] deals with RACK1 (prey, CIC format) (human) (UniProt P63244). Nature of the assay: SIMPL ELISA, bait-IN/prey-CIC.
The target of assay [11] is EZR (prey, CIC format) (human) (UniProt P15311). Kind of assay: SIMPL ELISA, bait-IN/prey-CIC.
Assay [12] addresses T3, RB1 (prey, CIC format) (human) (UniProt P06400).
T3 sequence (looked up): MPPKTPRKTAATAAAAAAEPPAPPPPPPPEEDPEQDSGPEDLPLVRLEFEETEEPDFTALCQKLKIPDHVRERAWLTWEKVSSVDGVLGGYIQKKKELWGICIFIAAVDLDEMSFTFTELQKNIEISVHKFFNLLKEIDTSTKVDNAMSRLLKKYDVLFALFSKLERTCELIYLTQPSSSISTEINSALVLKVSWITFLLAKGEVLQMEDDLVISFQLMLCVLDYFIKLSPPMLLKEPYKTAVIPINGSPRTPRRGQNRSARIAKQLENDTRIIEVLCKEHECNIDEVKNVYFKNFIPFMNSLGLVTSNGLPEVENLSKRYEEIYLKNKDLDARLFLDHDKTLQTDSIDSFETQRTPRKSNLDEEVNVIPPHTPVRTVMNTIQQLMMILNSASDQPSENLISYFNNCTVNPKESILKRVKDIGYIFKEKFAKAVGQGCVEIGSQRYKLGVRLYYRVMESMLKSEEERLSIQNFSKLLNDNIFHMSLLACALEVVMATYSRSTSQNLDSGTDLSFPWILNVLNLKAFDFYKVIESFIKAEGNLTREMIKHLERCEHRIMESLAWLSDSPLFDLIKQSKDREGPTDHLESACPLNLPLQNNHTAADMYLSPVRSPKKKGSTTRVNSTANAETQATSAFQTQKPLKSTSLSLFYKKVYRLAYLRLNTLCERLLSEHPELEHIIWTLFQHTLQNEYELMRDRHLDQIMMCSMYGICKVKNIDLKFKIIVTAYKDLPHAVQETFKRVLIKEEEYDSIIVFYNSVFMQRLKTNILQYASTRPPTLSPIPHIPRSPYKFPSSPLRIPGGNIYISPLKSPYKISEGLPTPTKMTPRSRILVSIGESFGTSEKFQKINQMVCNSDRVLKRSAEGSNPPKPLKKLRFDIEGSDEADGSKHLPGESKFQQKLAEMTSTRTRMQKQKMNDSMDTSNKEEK
Kind of assay: SIMPL ELISA, bait-IN/prey-CIC.

Assay [13] addresses T4, PEX3 (prey, CIC format) (human) (UniProt P56589).
T4 sequence (looked up): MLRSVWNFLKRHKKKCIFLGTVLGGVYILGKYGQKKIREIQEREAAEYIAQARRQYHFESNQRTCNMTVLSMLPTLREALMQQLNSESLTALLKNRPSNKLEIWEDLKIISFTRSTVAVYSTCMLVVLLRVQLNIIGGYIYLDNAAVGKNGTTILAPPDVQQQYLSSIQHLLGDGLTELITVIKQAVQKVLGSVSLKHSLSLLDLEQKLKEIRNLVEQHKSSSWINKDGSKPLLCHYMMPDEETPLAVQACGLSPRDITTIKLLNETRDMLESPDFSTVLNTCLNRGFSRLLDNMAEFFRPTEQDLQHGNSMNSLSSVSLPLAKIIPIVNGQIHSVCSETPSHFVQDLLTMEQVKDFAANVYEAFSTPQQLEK
Nature of the assay: SIMPL ELISA, bait-IN/prey-CIC.

Assay [14] has as its target LMNB1 (prey, CIC format) (human) (UniProt P20700). Nature of the assay: SIMPL ELISA, bait-IN/prey-CIC.
For assay [15], the target named is T5, ARFIP2 (prey, CIC format) (human) (UniProt P53365).
T5 sequence (looked up): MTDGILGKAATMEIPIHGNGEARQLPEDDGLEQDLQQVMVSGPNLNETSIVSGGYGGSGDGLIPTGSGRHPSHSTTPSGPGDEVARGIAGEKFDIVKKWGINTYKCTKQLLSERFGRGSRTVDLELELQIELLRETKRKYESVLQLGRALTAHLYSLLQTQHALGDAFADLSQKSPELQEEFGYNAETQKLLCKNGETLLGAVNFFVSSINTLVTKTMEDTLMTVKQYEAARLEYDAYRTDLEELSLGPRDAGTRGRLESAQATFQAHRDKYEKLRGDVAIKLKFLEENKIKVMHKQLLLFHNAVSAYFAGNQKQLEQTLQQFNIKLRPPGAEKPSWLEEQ
Kind of assay: SIMPL ELISA, bait-IN/prey-CIC.

Assay [16] has as its target CASP9 (prey, CIC format) (human) (UniProt P55211). Kind of assay: SIMPL ELISA, bait-IN/prey-CIC.
Assay [17] has as its target TCL1A (prey, CIC format) (human) (UniProt P56279). Kind of assay: SIMPL ELISA, bait-IN/prey-CIC.
Assay [18] concerns the target T6, PDPK1 (prey, CIC format) (human) (UniProt O15530).
T6 sequence (looked up): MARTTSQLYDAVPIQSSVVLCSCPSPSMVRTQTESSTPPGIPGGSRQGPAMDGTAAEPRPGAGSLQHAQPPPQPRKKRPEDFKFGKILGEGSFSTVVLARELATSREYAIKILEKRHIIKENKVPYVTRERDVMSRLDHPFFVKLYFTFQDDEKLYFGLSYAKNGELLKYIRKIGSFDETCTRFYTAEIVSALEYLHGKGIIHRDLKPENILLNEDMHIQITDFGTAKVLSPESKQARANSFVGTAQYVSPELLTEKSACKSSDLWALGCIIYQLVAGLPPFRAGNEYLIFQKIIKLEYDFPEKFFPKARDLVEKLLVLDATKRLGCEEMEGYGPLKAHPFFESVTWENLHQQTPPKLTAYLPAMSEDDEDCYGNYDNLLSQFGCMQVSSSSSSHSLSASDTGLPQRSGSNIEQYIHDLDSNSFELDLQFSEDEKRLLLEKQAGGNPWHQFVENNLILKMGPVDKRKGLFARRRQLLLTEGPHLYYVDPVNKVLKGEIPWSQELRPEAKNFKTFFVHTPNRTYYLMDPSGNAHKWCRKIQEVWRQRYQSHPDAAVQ
Kind of assay: SIMPL ELISA, bait-IN/prey-CIC.

The target of assay [19] is T7, PEX19 (prey, CIC format) (human) (UniProt P40855).
T7 sequence (looked up): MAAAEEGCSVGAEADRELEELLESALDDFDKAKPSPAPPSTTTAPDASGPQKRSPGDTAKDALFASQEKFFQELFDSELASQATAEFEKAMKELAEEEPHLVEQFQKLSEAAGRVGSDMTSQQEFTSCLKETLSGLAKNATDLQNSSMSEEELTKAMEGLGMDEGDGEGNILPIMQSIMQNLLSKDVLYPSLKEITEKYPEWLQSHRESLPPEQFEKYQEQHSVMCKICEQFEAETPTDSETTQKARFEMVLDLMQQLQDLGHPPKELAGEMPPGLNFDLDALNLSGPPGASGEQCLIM
Kind of assay: SIMPL ELISA, bait-IN/prey-CIC.

For assay [20], the target named is CYB-1 (C. elegans prey, CIC format) (C. elegans) (UniProt Q10653). Kind of assay: SIMPL ELISA, C. elegans lysate, IN/CIC; ratio of spliced signal to total signal.
The target in assay [21] is T8, FRS2 (prey, CIC format) (human) (UniProt Q8WU20).
T8 sequence (looked up): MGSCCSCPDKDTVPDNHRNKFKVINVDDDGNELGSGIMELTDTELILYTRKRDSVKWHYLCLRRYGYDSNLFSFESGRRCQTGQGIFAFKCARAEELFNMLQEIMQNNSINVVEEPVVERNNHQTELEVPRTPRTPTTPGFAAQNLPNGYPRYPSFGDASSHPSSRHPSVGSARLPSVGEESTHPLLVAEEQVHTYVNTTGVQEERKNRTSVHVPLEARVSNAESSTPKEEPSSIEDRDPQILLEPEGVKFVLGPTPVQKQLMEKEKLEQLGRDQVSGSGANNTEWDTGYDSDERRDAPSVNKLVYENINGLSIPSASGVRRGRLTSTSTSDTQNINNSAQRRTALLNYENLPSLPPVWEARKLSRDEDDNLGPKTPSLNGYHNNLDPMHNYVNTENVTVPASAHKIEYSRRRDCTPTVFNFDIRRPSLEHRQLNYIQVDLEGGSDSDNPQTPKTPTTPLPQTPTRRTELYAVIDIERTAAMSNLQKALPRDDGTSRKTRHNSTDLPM
Kind of assay: SIMPL ELISA, bait-IN/prey-CIC.

For assay [22], the target named is T9, NCBP2 (prey, CIC format) (human) (UniProt P52298).
T9 sequence (looked up): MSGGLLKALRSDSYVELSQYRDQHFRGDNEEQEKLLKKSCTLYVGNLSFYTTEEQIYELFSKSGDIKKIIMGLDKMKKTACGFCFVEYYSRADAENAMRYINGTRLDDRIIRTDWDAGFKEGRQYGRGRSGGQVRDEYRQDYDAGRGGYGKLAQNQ
Nature of the assay: SIMPL ELISA, bait-IN/prey-CIC.

The results in this text go back to patent US20220229068A1, “DETECTION OF PROTEIN TO PROTEIN INTERACTIONS” (THE GOVERNING COUNCIL OF THE UNIVERSITY OF TORONTO, priority 2019, published 2022).

In the case of NPP-11 (C. elegans bait, IN-V5/HA), in assay [1], the ELISA Value Replicate 1 amounted to 1.8 and the ELISA Value Replicate 2 was 0.92.
Regarding RFC-2 (C. elegans bait, IN-V5/HA), in [2], the ELISA Value Replicate 1 is 0.66 and the ELISA Value Replicate 2 turned out to be 0.88.
For “NR3C1 (bait, IN format) (from UniProt P04150 1-777) (receptor)”, the PLU mean was 0.652 in assay [3], 0.183 in assay [4] and 0.63 in assay [5].
As for “PDGFRB (bait, IN format) (from UniProt P09619 33-1106) (receptor)”, the PLU mean was determined as 0.143 in [6] and 0.539 in assay [7].
As for “LET-60 (C. elegans bait, IN-V5/HA) (from UniProt P22981 1-184)”, in [8], the ELISA Value Replicate 1 was 0.79 and the ELISA Value Replicate 2 was 0.7. Further, in [9], the ELISA Value Replicate 1 was 1.2 and the ELISA Value Replicate 2 was found to be 0.59.
On to “PDE4D (bait, IN format) (from UniProt Q08499 1-809) (enzyme)”, for which the PLU mean was 0.639 in assay [10] and 0.137 in assay [11].
Regarding “LMNA (bait, IN format) (from UniProt P02545 1-664)”, the PLU mean in assay [12] is 1.18; in [13], 0.224; in assay [14], 0.861.
As to “XIAP (bait, IN format) (from UniProt P98170 1-497)”, the PLU mean in assay [15] is 0.439; in assay [16] it was 0.811.
Regarding “AKT1 (bait, IN format) (from UniProt P31749 1-480) (enzyme)”, the PLU mean turned out to be 0.111 in assay [17], 0.486 in [18] and 0.218 in [19].
With “CDK-1 (C. elegans bait, IN-V5/HA) (from UniProt P34556 1-332) (enzyme)”, in assay [20], the ELISA Value Replicate 1 was 1.1 and the ELISA Value Replicate 2 was found to be 0.8.
As for “RET (bait, IN format) (from UniProt P07949 29-1114) (receptor)”, the PLU mean in assay [21] was 0.608; in assay [22], 1.06.
